Columns and labels:
GST-ActI-SIPA1L2-1-624 = target: T1, GST-ActI-SIPA1L2-1-624 (rat, UniProt Q5JCS6 1-624); assay: pull-down
T1 sequence: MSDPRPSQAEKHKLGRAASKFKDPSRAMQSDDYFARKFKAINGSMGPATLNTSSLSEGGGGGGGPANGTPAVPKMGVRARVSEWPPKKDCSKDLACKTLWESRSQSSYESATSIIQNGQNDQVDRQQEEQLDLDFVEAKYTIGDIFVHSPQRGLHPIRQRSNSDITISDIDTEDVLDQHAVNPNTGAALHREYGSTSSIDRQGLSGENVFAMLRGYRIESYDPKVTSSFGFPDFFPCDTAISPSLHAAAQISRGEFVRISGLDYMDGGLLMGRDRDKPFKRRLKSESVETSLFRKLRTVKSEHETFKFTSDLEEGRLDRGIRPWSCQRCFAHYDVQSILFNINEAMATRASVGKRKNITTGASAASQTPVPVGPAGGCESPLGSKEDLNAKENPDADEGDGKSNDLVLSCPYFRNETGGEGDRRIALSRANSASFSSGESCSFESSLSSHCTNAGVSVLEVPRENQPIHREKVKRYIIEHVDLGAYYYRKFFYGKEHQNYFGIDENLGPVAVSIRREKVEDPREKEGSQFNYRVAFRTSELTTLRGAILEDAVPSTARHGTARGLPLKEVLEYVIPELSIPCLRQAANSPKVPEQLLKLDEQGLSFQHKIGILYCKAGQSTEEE

GST-SIPA1l2-86-99 = target: T2, GST-SIPA1l2-86-99 (rat, UniProt Q5JCS6 86-99); assay: pull-down
T2 chain: PKKDCSKDLACKTL

B1: MBP-TrkB-454-821 (domain or fragment)
chain: not shown
binding result (GST-ActI-SIPA1L2-1-624): binds

KLARHSKFGMKG [MBP-TrkB-454-465]
binding result (GST-SIPA1l2-86-99): binds
